Experimental data: patent US20110286916A1 (published 2011)

Key:
[1] = target: T1, human full-length Notch1 with C-terminal FLAG tag, stably expressed on 293 FlpIn (TREx) cells (human, UniProt P46531 19-2555); test: FACS, phage scFv
T1 construct: tetracycline/doxycycline-induced expression from pcDNA5/FRT/TO-HN1+FLAG; also called hN1; 293_N1

[2] = target: T2, human full-length Notch3 with C-terminal FLAG tag, stably expressed on 293 FlpIn (TREx) cells (human, UniProt Q9UM47 40-2321); test: FACS, phage scFv
T2 construct: whole, on cells; made by the same strategy as the Notch1 line; also called 293-N3; hN3

Row | Binder | binding result [1] | binding result [2]
1 | N1wc137 (scFv, V domains shown, phage scFv) VH: QVQLVQSGAEVKKPGASVKVSCKASGYTFTNYGLSWVRQAPGQGLEWMGWISGYNDNTSYAQKFQDRITMTTDTSTSTASMELRSLRSDDTAVYYCAFSYYDSSGYFNWGQGTMVTVSS VL: QAVLTQPSSVSGAPGQRVTVSCTGSSSNIGTGYAVHWYQQLPGTAPRLLIFGNNNRPSGVPDRFSGSKSGTSASLVITGLQAEDEADYYCQSFDTLSGSRVFGGGTKVTVL | binds | –
2 | N1wc142 (scFv, V domains shown, phage scFv) VH: EVQLVQSGAEVKKPGASVNLSCKASGYSFSRYYIHWVRQAPGQGLELMGRINPGGGTTTYAQKFQGRVTLSRDTSTNTIFMELNGLTSEDTAMYYCARSNYDILAGYGPDAFDFWGRGTMVTVSS VL: QSVLTQPPSVSGAPGQRVTISCIGSNSNIGAGHDVHWYQQFPGTAPKLLIYDNTNRPSGVPDRFSGSKSGTSVSLAITGLQAEDEADYYCQSYDSSLGEVFGGGTKLTVL | binds | –
3 | hN1S3-147 (scFv, V domains shown, phage scFv) VH: QVQLVQSGPEVKKPGTSVKVSCKASGFTFTSSAVQWVRQARGQRLEWIGWIVVGSGNTNYAQKFQERVTITRDMSTSTAYMELSSLRSEDTAVYYCVADTVYWGKGTLVTVSS VL: not shown | – | binds
4 | hN1S3-082 (scFv, V domains shown, phage scFv) VH: QVQLVQSGPEVKKPGTSVKVSCKASGFTFTSSAVQWVRQARGQRLEWIGWIVVGSGNTNYAQKFQERVTITRDMSTSTAYMELSSLRSEDTAVYYCVADTVYWGRGTLVTVSS VL: not shown | – | binds
5 | hN1S3-133 (scFv, V domains shown, phage scFv) VH: QVQLVQSGPEVKKPGTSVKVSCKASGFTFTSSAVQWVRQARGQRLEWIGWIVVGSGNTNYAQKFQERVTITRDMSTSTAYMELSSLRSEDTAVYYCVADTVYWGQGTLVTVSS VL: QSVLTQPPSVSEAPRQRVTISCSGSSSNIGNNAVNWYQQLPGEAPKLLIYYDDLLPSGVSDRFSGSKSGSSASLAISGLQAEDEADYYCATWDDSLNAWVFGGGTKVTVL | – | binds
6 | N1wc625 (scFv, V domains shown, phage scFv) VH: not shown VL: QSVLTQPPSASGTPGQRVTISCSGGRSNIGTNYVYWYQKLPGTAPKSLIYTTNQRPSGVPDRFSGSKAGTSASLAISGLRSEDEGDYYCASWDESLNGVVFGGGTKVTVL | binds | –
7 | N1wc157 (scFv, V domains shown, phage scFv) VH: QVQLVQSGAGLKRPGTSVKISCKTSGYIFSQYPMHWVRQAPGQGLEWVAWVDTGNGTTRYSPNFQGRATVSGDTSANTGYLELRSLRFTDTAVYYCATNAFDYWGRGTLVTVSS VL: SYELTQPPSVSVSPGQTARITCSGDALPDKYVHWYQQKSGQAPVLVLFDDSKRPSGIPERFSGSSSGTVATLIISGAQVEDEGDFFCYSTDSSGNERVFGGGTKLTVL | binds | –
8 | N1wc175 (scFv, V domains shown, phage scFv) VH: not shown VL: QSVLTQPPSASGTPGQRVTISCSGSRSSIGSNTVSWYQQLPGTAPKLIIYTNNQRPSGVPDRFSGSKSGTSATLAISGLQSEDEADYYCASWDDSLNDYVFGVGTKVTVL | binds | –
9 | hN1S3-083 (scFv, V domains shown, phage scFv) VH: QVQLQQSGPGLVKPSQTLSLTCAISGDSISSSSATWNWIRQSPSRGLEWLGRTYYRSKWYNDYAVSVKSRITIDPDTSKNQFSLQLNSVTPEDTAVYYCARQLGGRIEFWGQGTLVTVSS VL: QSVLTQPPSASGSPGRSVTISCTGTSRDVGAYNYVSWYQQHPGEAPKLLISEVTKRPSGVPARFSASKSGNTASLTISGLQAEDEGDYYCSSYAGSDSWVFGGGTKLTVL | – | binds
10 | N1wc112 (scFv, V domains shown, phage scFv) VH: EVQLVESGGGLAQPGKSLRISCAASGFTFGDYAMTWVRQAPGKGLEWVSSISGSGSGTYYTDSVKGRFAISRDNSKNTLYPQMNSLAAEDTAIYFCAKDQTDVTIRDFDYWGRGTLVTVSS VL: SYELTQPPSVSVAPGQTARISCGGDNLGRKSVHWYQQKPGQAPVLVIYEDSKRPSGIPERFSGSSSGTMATLTISGAQVEDEADYYCYSTDSSGNHRVFGGGTKVTVL | binds | –
11 | N1wc13 (scFv, V domains shown, phage scFv) VH: QVQLVQSGAEVKKPGASVKVSCKASGYNFTGYYMHWVRQAPGQGLEWMGWINPNSGGTNYAQKFQGRVTMTRETSISTAYMELSRLRSDDTAVYYCATDSFDYWGRGTMVTVSS VL: not shown | – | binds
12 | hN1S3-141 (scFv, V domains shown, phage scFv) VH: QVQLVQSGAEVKKPGASVKVSCKASGYNFTGYYIHWVRQAPGQGLEWMGWINPNSGGTNYAQKFQGRVIMTRDTSISTAYMELSRLRSDDTAVYYCATDSFDYWGRGTLVTVSS VL: QSVLTQPPSASGTPGQRVTISCSGSYSNIGSNYVYWYQQFPGTAPKLLIYTNNQRPSGVPDRFSGSKSGSSASLAISGLRSEDEADYYCAAWDDSVGVLLFGGGTKLTVL | – | binds
13 | N1wc160 (scFv, V domains shown, phage scFv) VH: QVQLQESGAEVKKPGASVKVSCKASGYNFTGYYMHWVRQAPGQGLEWMGWINPNSGGTNYAQKFQGRVTMTRDTSISTAYMELSRLRSDDTAVYYCATDSFDYWGRGTMVTVSS VL: SYVLTQPPSASGTPGQRVTISCSGSSSNIGSNTVHWYQQLPETAPKLLIYTNNQRPSGVPDRFSGSKSGTSASLAISGLQSEDEADYYCASWDDSLKAYVFGTRTKLTVL | binds | –
14 | N1wc202 (scFv, V domains shown, phage scFv) VH: EVQLVQSGAEVKKPGASVKVSCKASGYNFTGYYMHWVRQAPGQGLEWMGWINPNSGGTNYAQKFQGRVTMTRDTSISTAYMELSRLRSDDTAVYYCATDSFDYWGRGTLVTVSS VL: SYELTQPPSVSGTPGQRVTISCSGSSSNIESNAVHWYQHLPGRAPKLLIFSHNQRPSGVPARFSGSKSGTSASLAISGLQSEDEADYYCAAWDDSLSGYVFASGTKLTVL | binds | –
15 | N1wc79 (scFv, V domains shown, phage scFv) VH: QVQLQQSGAEVKKPGASVKVSCKASGYNFTGYYMHWVRQAPGQGLEWMGWINPNSGGTNYAQKFQGRVTMTRDTSISTAYMELSRLRSDDTAVYYCATDSFDYWGQGTMVTVSS VL: not shown | – | binds
16 | hN1S3-184 (scFv, V domains shown, phage scFv) VH: not shown VL: QSVLTQPPSASGTPGQRVTISCSGSSSNIGGNYVYWYQQLPGTAPKLLIYRSNQRPSGVPDRFSGSKSGTSASLAISGLRSEDEADYYCAAWDDSLHGVIFGGGTKLTVL | – | binds
17 | N1wc520 (scFv, V domains shown, phage scFv) VH: not shown VL: SYVLTQPPSVSGTPGQRVTISCSGSSSNIESNAVHWYQHLPGRAPKLLIFSHNQRPSGVPARFSGSKSGTSASLAISGLQSEDEADYYCAAWDDSLSGYVFASGTKVTVL | binds | –
18 | hN1S3-035 (scFv, V domains shown, phage scFv) VH: not shown VL: QAVLTQPSSVSGAPGQRVTISCTGSSSNIGAGYDVHWYQQLPGTAPKLLIYGNSNRPSGVPDRFSGSKSGTSASLAITGLQAEDEADYYCQSYDSSLSGSVFGGGTKVTVL | – | binds
19 | N1wc225 (scFv, V domains shown) VH: QVQLQQSGAEVKKPGASVKVSCKASGYNFTGYYMHWVRQAPGQGLEWMGWINPNSGGTNYAQKFQGRVTMTRDTSISTAYMELSRLRSDDTAVYYCATDSFDYWGRGTMVTVSS VL: QSVVTQPPSVSGAPGQRVTISCTGSSSNIGAGYDVHWYQQLPGTAPKLLIYGNSNRPSGVPDRFSGSKSGTSASLAITGLQAEDEADYYCQSYDSSLSGSVFGGGTKLTVL | – | binds
20 | N1wc130 (scFv, V domains shown, phage scFv) VH: QVQLQQSGAEVKKPGASVKVSCKASGYNFTGYYMHWVRQAPGQGLEWMGWINPNSGGTNYAQKFQGRVTMTRDTSISTAYMELSRLRPDDTAVYYCATDSFDYWGKGTMVTVSS VL: QAVLTQPSSVSGAPGQRVTISCTGTGSNIGAGYDVHWYQQLPGTAPKLLIYANTNRPSGVPDRFSGSKSGTSASLAITGLQAEDEADYYCQSYDSSLSGSVFGGGTKVTVL | – | binds
21 | N1wc140 (scFv, V domains shown, phage scFv) VH: QVQLQQSGAEVKKPGSSVKVSCRASGGTFSNYAISWVRQAPGQGLEWMGRIIPIFGGAHYAQKLQGRVSITADESTSTAHMELSSLRSEDAAVYYCASGAYYDVMGNYPYSGMDVWGRGTLVTVSS VL: SYVLTQPPSVSVSPGQTAKITCGGDKIETKSVHWYQQKPGQAPVLVIYEDTKRPSGISERLSGSSAGTVATLTITGAQVDDEADYFCYSTDATGTERVFGGGTKLTVL | binds | –
22 | N1wc152 (scFv, V domains shown, phage scFv) VH: QVQLVQSGGGLVQPGGSLRLSCGASGFTFSSHWMSWVRRPPGRGLEWVANINEGGSAEYYADSLKGRFTISRDNAKNSLFLQMDSLRAEDTAVYYCVRDQFHSNYDWGQGTMVTVSS VL: QAVLTQPSSVSGAPGQRVTISCTGSSSNIGAPFDVHWYQQLPGTAPKLLIYGNSNRPSGVPDRFSGSKFGTSASLAITGLQAADEADYYCQSYDSSLSGWVFGGGTKLTVL | binds | –
23 | hN1S3-077 (scFv, V domains shown, phage scFv) VH: EVQLVQSGAEVKKPGAPVKVSCKTSGYGFSNYYMHWVRQAPGQGLEWLGMINPSDGSQHFAQRFRDRVSFTSDTSTSAVYMELAGLRSDDTAVYYCAREKANSMYFDYWGQGTLVTVSS VL: QSVVTQPPSLSAAPGQRVTISCSGSHSNIGNFYVSWYQQVPGAAPKLLIYDNNERPSGIPDRFSGSKSGTSATLDITGLQTGDEADYYCSTWDRSLSASVFGSGTKLTVL | – | binds
24 | hN1S3-130 (scFv, V domains shown, phage scFv) VH: KVQLVQSGAEVKKPGASVKVSCKASGYTFTDFYIHWVRQAPGQGLEWMGWINSKSGDTHYAQKFQGRVTLTRDTSTDTAYMELSRLTSDDTAVYYCARGAYDYVWGSSRYVADAFDIWGRGTMVTVSS VL: DIVMTQSPSTLSASVGDRVTITCRASQGISSWLAWYQQKPGRAPKVLIYKASTLESGVPSRFSGSGSGTDFTLTISSLQPEDFATYYCQQSYSTPWTFGQGTKLEIK | – | binds
